Experimental data from patent US20240018237A1 (SICHUAN KELUN BIOTECH BIOPHARMACEUTICAL, published 2024).
Residue numbers refer to the chain shown, from its start. One block for each binder: values may come before it.

Key:
[1] = biological target: T1, human ROR1 (full-length, on the cell surface) (human, UniProt Q01973 30-937); assay: cell-based or functional assay
[2] = biological target: T2, human ROR2 extracellular domain (ECD) protein (human, UniProt Q01974 34-403); assay: ELISA on coated human ROR2 ECD protein (1 ug/mL), OD at 450 nm
T2 construct: extracellular domain; Bought protein; also called human ROR2 ECD protein; Sino Biologicals 16133-H08H
T2 sequence (Q01974 34-403): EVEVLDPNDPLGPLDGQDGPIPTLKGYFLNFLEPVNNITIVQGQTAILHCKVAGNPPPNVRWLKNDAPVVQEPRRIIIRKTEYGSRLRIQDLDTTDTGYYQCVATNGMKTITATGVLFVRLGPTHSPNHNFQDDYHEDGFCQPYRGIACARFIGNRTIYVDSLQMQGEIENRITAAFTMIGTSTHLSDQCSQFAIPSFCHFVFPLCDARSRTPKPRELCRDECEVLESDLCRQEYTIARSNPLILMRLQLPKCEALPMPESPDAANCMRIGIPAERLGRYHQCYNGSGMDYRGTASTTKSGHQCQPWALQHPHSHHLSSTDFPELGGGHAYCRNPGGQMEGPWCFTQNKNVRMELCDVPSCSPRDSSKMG
Procedure: It was confirmed by ELISA using extracellular domain (ECD) protein of human ROR2 that the binding specificity of the candidate antibodies to human ROR1 was higher than that of human ROR2. The specific method was as follows: 1 μg/mL human ROR2 extracellular domain (ECD) protein (Sino Biologicals, Cat. No.: 16133-H08H) was added in a 96-well ELISA plate (Thermo Fisher, Cat. No.: 5129) at 100 μL/well, for coating overnight at 4° C. 200 μL of washing buffer (1×TBS containing 0.05% Tween-20) was used to wash 3 times, different concentrations of eight purified mouse-anti-human ROR1 candidate antibodies and UC961 were added at 100 μL, incubated at 37° C. for 1 hour, and mouse-anti-human ROR2 antibody (R&D systems, Cat. No.: MAB2064) was used as a positive control. Washing was performed 3 times with 200 μL of washing buffer, 100 μL of anti-human IgG (Rockland Inc, Cat. No. 609-1304) or anti-mouse IgG secondary antibody (Rockland Inc, Cat. No. 610-1304) diluted at a ratio of 1:10000 were added to each well, incubated at 37° C. for 1 hour. Washing was performed 3 times with 200 μL of washing buffer, 100 μL of TMB (Thermo Fisher, Cat. No.: TMBW-1000-01) was added for color development in the dark for 10 minutes, then 100 μL of stop solution (Thermo Fisher, Cat. No.: 13361-100-10) was added to stop the color development, and reading was carried out by microplate reader at 450 nm.

[3] = biological target: T1, human ROR1 (full-length, on the cell …); assay: flow cytometry on Jeko-1 cells, MFI against antibody concentration
Text: (§1) The affinity of the candidate antibodies to ROR1 on the surface of human cells was detected by flow cytometry. In addition to the Ba/F3-ROR1 overexpression cells, human mantle cell lymphoma cell line Jeko-1 (ATCC, Cat. No.: CRL-3006), human colon cancer cell line HT-29 (ATCC, Cat. No.: HTB-38), human lung cancer cell line A549 (ATCC, Cat. No.: CCL-185) were also used for the binding assay. The anti-human ROR1 antibody UC961 (for sequence, see WO2018237335A1) with mouse or human IgG1 Fc was used as a positive control, and the anti-2,4,6-trinitrophenol antibody (ATCC) with the corresponding mouse or human IgG1 Fc was used as a negative control. Mouse IgG isotype control (Thermo Fisher, Cat. No.: 31903) was also used as a negative control.

[4] = biological target: T1, human ROR1 (full-length, on the cell …); assay: flow cytometry on A549 cells, MFI against antibody concentration
Text: as §1

[5] = biological target: T1, human ROR1 (full-length, on the cell …); assay: flow cytometry on Ba/F3-ROR1 cells, MFI against antibody concentration
Text: as §1

[6] = biological target: T1, human ROR1 (full-length, on the cell …); assay: flow cytometry on HT29 cells, MFI against antibody concentration
Text: as §1

[7] = biological target: T1, human ROR1 (full-length, on the cell …); assay: flow cytometry, HT-29 cells
Procedure: (§2) The affinities of the purified anti-human ROR1 chimeric antibodies binding to the Ba/F3-ROR1, Jeko-1, HT-29 and A549 cells were analyzed by flow cytometry. The specific experimental steps were as follows: the Ba/F3-ROR1, Jeko-1, HT-29 and A549 cells were incubated with the purified chimeric antibodies of different concentration gradients on ice for 30 minutes, and the anti-ROR1 antibody UC961 with human IgG1 and the anti-TNP antibody were used as positive and negative controls respectively.

human ROR1 ECD protein [8] = biological target: T3, human ROR1 ECD protein (human, UniProt Q01973 30-406); assay: BLI (Octet), antibody on AHC sensor, ROR1 ECD in solution, 1:1 model
T3 construct: range 30-406; Expressed in Expi293 or ExpiCHO cells; also called Recombinant human ROR ECD
T3 sequence (Q01973 30-406): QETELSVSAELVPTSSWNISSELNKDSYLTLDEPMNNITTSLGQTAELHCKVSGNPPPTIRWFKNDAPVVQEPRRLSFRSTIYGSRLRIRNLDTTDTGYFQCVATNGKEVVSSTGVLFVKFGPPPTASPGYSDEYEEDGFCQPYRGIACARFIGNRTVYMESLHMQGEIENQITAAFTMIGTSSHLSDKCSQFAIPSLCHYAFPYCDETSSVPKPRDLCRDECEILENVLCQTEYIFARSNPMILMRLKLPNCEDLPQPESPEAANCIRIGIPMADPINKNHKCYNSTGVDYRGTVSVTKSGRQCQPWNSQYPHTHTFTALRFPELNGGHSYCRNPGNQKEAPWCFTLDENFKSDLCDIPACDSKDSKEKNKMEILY
Text: Octet ForteBio is widely used in the detection of antibody-antigen dynamic affinity. This method was used to determine the dynamic affinities of the candidate chimeric antibodies 3D8-Chi, 19F6-Chi and 38F8-Chi and the positive control antibody UC961 to human ROR1.

[9] = biological target: T1, human ROR1 (full-length, on the cell …); assay: flow cytometry, Jeko-1 cells
Procedure: as §2

[10] = biological target: T1, human ROR1 (full-length, on the cell …); assay: flow cytometry, A549 cells
Procedure: as §2

[11] = biological target: T1, human ROR1 (full-length, on the cell …); assay: flow cytometry, Ba/F3-ROR1 cells
Procedure: as §2

human ROR1 ECD protein [12] = biological target: T3, human ROR1 ECD protein; assay: BLI (Octet), antibody on AHC sensor, ROR1 ECD in solution

T1 sequence (Q01973 30-937): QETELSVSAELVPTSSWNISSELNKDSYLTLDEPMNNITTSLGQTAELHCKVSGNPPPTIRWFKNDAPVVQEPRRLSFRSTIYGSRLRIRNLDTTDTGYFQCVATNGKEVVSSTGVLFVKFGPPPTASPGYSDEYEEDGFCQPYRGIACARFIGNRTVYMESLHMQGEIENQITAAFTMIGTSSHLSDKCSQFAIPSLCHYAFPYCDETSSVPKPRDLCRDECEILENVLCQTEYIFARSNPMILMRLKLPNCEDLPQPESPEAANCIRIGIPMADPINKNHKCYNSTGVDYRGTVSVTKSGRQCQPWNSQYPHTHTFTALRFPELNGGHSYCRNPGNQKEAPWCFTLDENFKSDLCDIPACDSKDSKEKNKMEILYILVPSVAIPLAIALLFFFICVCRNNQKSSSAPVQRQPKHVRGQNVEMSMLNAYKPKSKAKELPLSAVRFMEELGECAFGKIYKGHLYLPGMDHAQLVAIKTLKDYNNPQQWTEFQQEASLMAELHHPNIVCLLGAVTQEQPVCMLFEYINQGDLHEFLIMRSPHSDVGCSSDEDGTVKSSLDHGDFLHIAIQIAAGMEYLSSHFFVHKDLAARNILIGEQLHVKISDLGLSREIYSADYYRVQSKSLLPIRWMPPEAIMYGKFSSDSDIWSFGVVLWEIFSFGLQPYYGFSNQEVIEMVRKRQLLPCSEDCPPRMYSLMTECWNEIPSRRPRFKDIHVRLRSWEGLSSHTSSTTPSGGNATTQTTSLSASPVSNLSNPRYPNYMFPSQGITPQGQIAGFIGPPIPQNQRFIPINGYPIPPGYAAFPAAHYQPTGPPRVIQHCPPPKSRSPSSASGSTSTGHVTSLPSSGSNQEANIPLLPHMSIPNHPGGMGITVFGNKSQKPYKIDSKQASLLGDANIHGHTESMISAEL

- activity of inducing internalization on Jeko-1 cells (Mab-ZAP, by IC50), fold over UC961 [1]: 3.8 fold
- binding result [2]: no binding (tested: about 5000 ng/ml)
- EC50 (read off the curve) [3]: ~20 ng/mL
- EC50 (read off the curve) [4]: ~30 ng/mL
- EC50 (read off the curve) [5]: ~60 ng/mL
B1: Murine antibody 3D8.2.3 (antibody, V domains shown)
VH: EVKLVESGGGLVKPGGSLKLSCAASGFTFSSYAMSWVRQTPEKRLEWVASINSGGSTYYPDSVKGRFTISRDNARNILYLQMSSLRSEDTAMYYCARVNYYGYGDYAMDYWGQGTSVTVSS
VL: DIKMTQSPSSMYASLGERVTITCKASQDINSYLSWFQQKPGKSPKTLIYRANRLVDGVPSRFSGSGSGQDYSLTISSLEYEDMGIYYCLQYDEFPYTFGGGTNLEIK
notes: Hybridoma antibody

- EC50 (read off the curve) [6]: ~40 ng/mL
- activity of inducing internalization on Jeko-1 cells (Mab-ZAP, by IC50), fold over UC961 [1]: 5.3 fold
- binding result [2]: no binding (tested: about 5000 ng/ml)
- EC50 (read off the curve) [3]: ~30 ng/mL
- EC50 (read off the curve) [5]: ~60 ng/mL
B2: Murine antibody 38F8.1.1 (antibody, V domains shown)
VH: EVKLVESGGDLVKPGGSLKLSCTASGFTFSNYAMSWVRQTPEKRLEWVASISSGGPTYYPDSVKGRFTVSRDNARNILYLQMSSLRSEDTAMYYCARGYRYDVNWYFDVWGAGTSVTVSS
VL: B1 VL with S34T, Y49H, N103K
notes: Hybridoma antibody

- EC50 [7]: 0.463 nM
- Kd (human ROR1 ECD protein [8]): 8.09 nM
- koff (human ROR1 ECD protein [8]): 0.00381 s⁻¹
- kon (human ROR1 ECD protein [8]): 471000 M⁻¹ s⁻¹
- EC50 [9]: 0.619 nM
- EC50 [10]: 0.28 nM
- EC50 [11]: 0.62 nM
- fold stronger affinity than UC961 (by KD) (human ROR1 ECD protein [12]): 2 fold
B3: 3D8-Chi (antibody, human IgG1, kappa, V domains shown)
VH: B1 VH
VL: DIKMTQSPSSMYASLGERVTITCKASQDINSYLSWFQQKPGKSPKTLIYRANRLVDGVPSRFSGSGSGQDYSLTISSLEYEDMGIYYCLQYDEFPYTFGGGTNLEIKR
notes: Variable regions of 3D8.2.3 on human IgG1 / kappa constant regions; also called anti-human ROR1 chimeric antibody 3D8-Chi

- EC50 [7]: 0.22 nM
- Kd (human ROR1 ECD protein [8]): 3.17 nM
- koff (human ROR1 ECD protein [8]): 0.00299 s⁻¹
- kon (human ROR1 ECD protein [8]): 942000 M⁻¹ s⁻¹
- EC50 [9]: 0.563 nM
- EC50 [10]: 0.091 nM
- EC50 [11]: 0.416 nM
- fold stronger affinity than UC961 (by KD) (human ROR1 ECD protein [12]): 5 fold
B4: 38F8-Chi (antibody, human IgG1, kappa, V domains shown)
VH: B2 VH
VL: B3 VL with S34T, Y49H, N103K
notes: Variable regions of 38F8.1.1 on human IgG1 / kappa constant regions; also called anti-human ROR1 chimeric antibody 38F8-Chi

- EC50 (read off the curve) [6]: ~20 ng/mL
- activity of inducing internalization on Jeko-1 cells (Mab-ZAP, by IC50), fold over UC961 [1]: 23.4 fold
- binding result [2]: no binding (tested: about 5000 ng/ml)
- EC50 (read off the curve) [3]: ~8 ng/mL
- EC50 (read off the curve) [4]: ~10 ng/mL
B5: Murine antibody 19F6.2.3 (antibody, V domains shown)
VH: DVQLQESGPGLVKPSQSLSLTCTVTGYSITSDYAWNWIRQFPGNKLEWMGYISYSGSIRYNPSLKSRISITRDTSKNQFFLQLNSVTTEDTATYYCARGEITYYFDYWGQGTTLTVSS
VL: DIKMTQSPASLSMAIGEKVTIRCITTTDIDDDMNWYQQKPGEPPKLLISEGNTLRPGVPSRFSSSGYGTDFVFTIENMVSEDVADYYCLQSNDLPLTFGAGTKLELK
notes: Hybridoma antibody

- EC50 [7]: 0.266 nM
- Kd (human ROR1 ECD protein [8]): 0.456 nM
- koff (human ROR1 ECD protein [8]): 0.000514 s⁻¹
- kon (human ROR1 ECD protein [8]): 1.13e+06 M⁻¹ s⁻¹
- EC50 [9]: 0.271 nM
- EC50 [10]: 0.087 nM
- EC50 [11]: 0.325 nM
- fold stronger affinity than UC961 (by KD) (human ROR1 ECD protein [12]): 34.6 fold
B6: 19F6-Chi (antibody, human IgG1, kappa, V domains shown)
VH: B5 VH
VL: DIKMTQSPASLSMAIGEKVTIRCITTTDIDDDMNWYQQKPGEPPKLLISEGNTLRPGVPSRFSSSGYGTDFVFTIENMVSEDVADYYCLQSNDLPLTFGAGTKLELKR
notes: Variable regions of 19F6.2.3 on human IgG1 / kappa constant regions; also called anti-human ROR1 chimeric antibody 19F6-Chi
